# Measured values taken from patent US12065471B2, “B*44 restricted peptides for use in immunotherapy against cancers and related methods” (Immatics Biotechnologies GmbH, priority 2018, dated 2024).
# Molecular target: HLA-B*44:05 (Homo sapiens, UniProt P01889, A223V/A65T/A93T/A95T/D201E/D98Y/E176V/E187L/E204Q/E69K/G107R/H137Y/K202T/L105A/L119I/N104T/N87E/Q56L/Q94N/R106L/R155S/R180D/S101N/S121R/S35A/S48T/T118I/V36M/W191S/Y91S)
# Test: MHC binding assay (UV-ligand exchange, β2m ELISA, peptide exchange yield)
# Details: binding to HLA-B*44:05
# Source text: Candidate peptides for T cell-based therapies according to the present invention were further tested for their MHC binding capacity (affinity). The individual peptide-MHC complexes were produced by UV-ligand exchange, where a UV-sensitive peptide is cleaved upon UV-irradiation and exchanged with the peptide of interest as analyzed. Only peptide candidates that can effectively bind and stabilize the peptide-receptive MHC molecules prevent dissociation of the MHC complexes. To determine the yield of the exchange reaction, an ELISA was performed based on the detection of the light chain (β2m) of stabilized MHC complexes. The assay was performed as generally described in Rodenko et al. (Rodenko et al., 2006)
# 96 well MAXISorp plates (NUNC) were coated over night with 2 μg/ml streptavidin in PBS at room temperature, washed 4× and blocked for 1 h at 37° C. in 2% BSA containing blocking buffer. Refolded HLA-A*02:01/MLA-001 monomers served as standards, covering the range of 15-500 ng/ml. Peptide-MHC monomers of the UV-exchange reaction were diluted 100-fold in blocking buffer. Samples were incubated for 1h at 37° C., washed four times, incubated with 2 μg/ml HRP conjugated anti-β2m for 1h at 37° C., washed again and detected with TMB solution that is stopped with […]. Absorption was measured at 450 nm.
row,"Peptide exchange (MHC class I binding score, peptide exchange yield)",Substance
1,++ (>20% = ++),1 (KEVDPASNTYTL; listed as Homo sapiens) [compound 1]
2,++ (>20% = ++),2 (EEFLRPRSL; listed as Homo sapiens) [compound 2]
3,++ (>20% = ++),3 (DEIFTNDRRW; listed as Homo sapiens) [compound 3]
4,++ (>20% = ++),10 (SEYPTKNYV; listed as Homo sapiens) [compound 10]
5,+++ (>50 = +++),14 (EMPGGPVW; listed as Homo sapiens) [compound 14]
6,+++ (>50 = +++),21 (SEAKEIKSQL; listed as Homo sapiens) [compound 21]
7,++ (>20% = ++),26 (EESSSPVDEY; listed as Homo sapiens) [compound 26]
8,+++ (>50 = +++),27 (GETCVRITY; listed as Homo sapiens) [compound 27]
9,++ (>20% = ++),34 (AEPPILYSEY; listed as Homo sapiens) [compound 34]
10,++ (>20% = ++),38 (DEVRFFKGNKY; listed as Homo sapiens) [compound 38]
11,++ (>20% = ++),46 (SELGLPKEV; listed as Homo sapiens) [compound 46]
12,+++ (>50 = +++),50 (SEYVHSSFSGF; listed as Homo sapiens) [compound 50]
13,++ (>20% = ++),52 (EDNPSGHTY; listed as Homo sapiens) [compound 52]
14,++++ (>75% = ++++),55 (TEFHMQFSY; listed as Homo sapiens) [compound 55]
15,+++ (>50 = +++),58 (KEMDPSRQSY; listed as Homo sapiens) [compound 58]
16,++ (>20% = ++),64 (EEYQDSFERY; listed as Homo sapiens) [compound 64]
17,++ (>20% = ++),65 (SESMVESKF; listed as Homo sapiens) [compound 65]
18,++ (>20% = ++),67 (TEGAVEVKY; listed as Homo sapiens) [compound 67]
19,++ (>20% = ++),74 (AELEGALQKA; listed as Homo sapiens) [compound 74]
20,+ (>10% = +),75 (LETSCGSSTAY; listed as Homo sapiens) [compound 75]
21,++ (>20% = ++),76 (RLNEHPSNNW; listed as Homo sapiens) [compound 76]
22,+++ (>50 = +++),77 (QETLAESTW; listed as Homo sapiens) [compound 77]
23,++ (>20% = ++),81 (GEKATMQNL; listed as Homo sapiens) [compound 81]
24,+++ (>50 = +++),84 (AETSYVKVLEY; listed as Homo sapiens) [compound 84]
25,+++ (>50 = +++),85 (SEIDEKVTDL; listed as Homo sapiens) [compound 85]
26,+++ (>50 = +++),86 (QTLKAMVQAW; listed as Homo sapiens) [compound 86]

row,"Peptide exchange (MHC class I binding score, peptide exchange yield)",Substance
1,++++ (>75% = ++++),87 (GEARGDQVDW; listed as Homo sapiens) [compound 87]
2,++ (>20% = ++),89 (KEFYPVKEF; listed as Homo sapiens) [compound 89]
3,+++ (>50 = +++),90 (EESLLSSW; listed as Homo sapiens) [compound 90]
4,+++ (>50 = +++),91 (EESLLSSWDF; listed as Homo sapiens) [compound 91]
5,+ (>10% = +),92 (KEPSQSCIAQY; listed as Homo sapiens) [compound 92]
6,+++ (>50 = +++),93 (SEAGLTANQY; listed as Homo sapiens) [compound 93]
7,++ (>20% = ++),94 (SLAELIAKDW; listed as Homo sapiens) [compound 94]
8,++++ (>75% = ++++),95 (AAFEDAQGHIW; listed as Homo sapiens) [compound 95]
9,+ (>10% = +),96 (MDELEEGESY; listed as Homo sapiens) [compound 96]
10,++ (>20% = ++),97 (ELVHMINW; listed as Homo sapiens) [compound 97]
11,+++ (>50 = +++),98 (SEESAGPLL; listed as Homo sapiens) [compound 98]
12,++++ (>75% = ++++),99 (SECVKSLSF; listed as Homo sapiens) [compound 99]
13,+++ (>50 = +++),101 (SEENTGKTY; listed as Homo sapiens) [compound 101]
14,++++ (>75% = ++++),102 (TELADLDAAW; listed as Homo sapiens) [compound 102]
15,++++ (>75% = ++++),103 (AELFLTKSF; listed as Homo sapiens) [compound 103]
16,+++ (>50 = +++),105 (EEIFKTLNY; listed as Homo sapiens) [compound 105]
17,+++ (>50 = +++),106 (SVISDSPRSW; listed as Homo sapiens) [compound 106]
18,++ (>20% = ++),107 (YQENPRAAW; listed as Homo sapiens) [compound 107]
19,+++ (>50 = +++),108 (QETNKVETY; listed as Homo sapiens) [compound 108]
20,+ (>10% = +),110 (EVEVGEVKSW; listed as Homo sapiens) [compound 110]
21,++ (>20% = ++),111 (QEIDQKRLEF; listed as Homo sapiens) [compound 111]
22,+++ (>50 = +++),112 (AEIEADRSYQH; listed as Homo sapiens) [compound 112]
23,++ (>20% = ++),113 (MEFKTLNKN; listed as Homo sapiens) [compound 113]
24,++++ (>75% = ++++),114 (VEVNGVPRW; listed as Homo sapiens) [compound 114]
25,+++ (>50 = +++),115 (QEPFTRPVL; listed as Homo sapiens) [compound 115]
